# From patent US20030148958A1 (PROCTER AND GAMBLE, published 2003)
# Ends that are not written are not given here.
# Columns and labels:
# CRF2R = target: T1, CRF2R; assay: cell-based or functional assay
# T1 sequence (Q13324 whole entry, species assumed, looked up): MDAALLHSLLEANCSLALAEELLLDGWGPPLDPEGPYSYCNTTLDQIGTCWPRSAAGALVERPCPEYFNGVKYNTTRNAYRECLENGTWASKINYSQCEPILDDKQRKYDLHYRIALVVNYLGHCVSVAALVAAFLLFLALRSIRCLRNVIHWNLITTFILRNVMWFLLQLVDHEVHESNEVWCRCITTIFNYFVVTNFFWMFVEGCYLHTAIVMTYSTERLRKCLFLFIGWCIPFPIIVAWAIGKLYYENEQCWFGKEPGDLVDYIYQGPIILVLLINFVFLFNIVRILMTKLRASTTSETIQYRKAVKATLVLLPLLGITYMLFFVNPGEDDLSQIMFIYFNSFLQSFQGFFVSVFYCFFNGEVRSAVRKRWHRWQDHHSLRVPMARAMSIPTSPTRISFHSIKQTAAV
# CRF1R = assay: cell-based or functional assay
# For CRF1R Emax % in this document: reference of the scale not given here.
# For CRF2R Emax % in this document: reference of the scale not given here.
Binder,CRF2R EC50 (CRF2R),CRF1R EC50 (CRF1R),CRF2R Emax % (CRF2R),CRF1R Emax % (CRF1R)
DNPSLSIDLPLLLLRTLLELEKTQSQRERAEQNAIIFASV-NH2 [SEQ ID NO 347],22.4 nM,1000 nM,,
ZGPPISIDLPFQLLRILIEIEKQEKEKQQAANNALLLAT (C-terminal amide) [SEQ ID NO 358],5.56 nM,99 nM,100%,100%
PSLSIDLPLLLLRTLLELEKTQSQRERAEQNAIIFASV-NH2 [SEQ ID NO 344],4.3 nM,650 nM,,
IVLSLDVPIGLLQILLEQARARAAREQATTNARILARVM-NH2 [SEQ ID NO 368],50.4 nM,1000 nM,,
DNPSLSIDLPLILLRTLLELEKTQSQRERAEQNAIIFASV-NH2 [SEQ ID NO 345],39.7 nM,1000 nM,100%,18.8%
DNPSLSIDLPLFLLRTLLELEKTQSQRERAEQNAIIFASV-NH2 [SEQ ID NO 343],13.6 nM,783 nM,96.5%,62.5%
PSLSIDLPLLLLRTLLELEKTQSQRERAEQNAIIFASV-NH2 [SEQ ID NO 348],5.77 nM,630 nM,,
IVLSLDVPIGLLQILLEQARHAAAHAAAHAQAHILAHV-NH2 [SEQ ID NO 367],100 nM,1000 nM,18%,6%
IVLSLDVPIGLLQILLEKAAAEAEAAAKAAQEQILAHV-NH2 [SEQ ID NO 366],100 nM,1000 nM,46%,9%
IVLSLDVPIGLLQILLEQARHAHAHAHAHAQAHILAHV-NH2 [SEQ ID NO 369],100 nM,1000 nM,18%,4%
DNPSLSIDLPLLLLRTLLELEKTQSQRERAEQNARIFARV-NH2 [SEQ ID NO 341],8.83 nM,850 nM,95.5%,82.3%
IVLSLDVPIGLLQILLEQARARAAREQATTNARILARV-NH2 [SEQ ID NO 354],6.48 nM,1000 nM,100%,13.4%
IVLSLDVPIHLLQILLEQARARAAREQATTNARILARV-NH2 [SEQ ID NO 371],6.62 nM,1000 nM,97%,22%
IVLSLDVSIGLLQILLEQARARAAREQATTNARILARV-NH2 [SEQ ID NO 370],51 nM,1000 nM,75%,33%
DNPSLSIDLPLQLLRTLLELEKTQSQRERAEQNAIIFASV-NH2 [SEQ ID NO 342],20.2 nM,1000 nM,92.2%,19.6%
ZGPPISIDLPFQLLRKVIEIEKQEKEKQQATTNARLLDRV (C-terminal amide) [SEQ ID NO 351],12.9 nM,1000 nM,97.4%,85.7%

Binder,CRF2R EC50 (CRF2R),CRF1R EC50 (CRF1R),CRF2R Emax % (CRF2R),CRF1R Emax % (CRF1R)
ZGPPISIDLPFQLLRKAIEIEKQEKEKQQATTNARLLDRV (C-terminal amide) [SEQ ID NO 363],25.1 nM,1000 nM,100%,20%
ZGPPISIDLPLYLLRKMIEIEKQEKEKQQATTNARILARV (C-terminal amide) [SEQ ID NO 353],4.75 nM,230 nM,89.9%,92.2%
DNPSLSIDLPLLLLRTLLELEKTQSQRERAEQNAIIFASV-NH2 [SEQ ID NO 346],8.48 nM,1000 nM,,
IVLSLDVPIGLLQILLEQARARAAREQATTNARILARVM-NH2 [SEQ ID NO 356],83 nM,1000 nM,,
ZGPPISIDLPLQLLRKVIEIEKQEKEKQQAANNALLLATI (C-terminal amide) [SEQ ID NO 349],13.8 nM,1000 nM,100%,44.2%
ZGPPISIDLPFQLLRKVIEIEKQEKEKQQAANNALLLATI (C-terminal amide) [SEQ ID NO 352],8.26 nM,780 nM,83.7%,82.6%
ZGPPISIDLPFQLLRKIIEIEKQEKEKQQAANNALLLATI (C-terminal amide) [SEQ ID NO 362],4.39 nM,386 nM,100%,100%
ZGPPISIDLSLELLRKMIEIEKQEKEKQQAANNRLLLDTI (C-terminal amide) [SEQ ID NO 355],6.03 nM,18 nM,95%,100%
ZGPPISIDLPFQLLRVLIEIEKQEKEKQQAANNALLLATI (C-terminal amide) [SEQ ID NO 361],6.37 nM,149 nM,99%,100%
ZGPPISIDLPFQLLRLLIEIEKQEKEKQQAANNALLLATI (C-terminal amide) [SEQ ID NO 360],6.12 nM,157 nM,93%,100%
ZGPPISIDLPFQLLRKAIEIEKQEKEKQQAANNALLLDTI (C-terminal amide) [SEQ ID NO 365],23.4 nM,1000 nM,94%,21%
ZGPPISIDLPFQLLRKAIEIEKQEKEKQQAANNALLLATI (C-terminal amide) [SEQ ID NO 364],13.2 nM,1000 nM,100%,27%
ZGPPISIDLPFQLLREVIEIEKQEKEKQQAANNALLLATI (C-terminal amide) [SEQ ID NO 359],23.1 nM,230 nM,100%,100%
ZGPPISIDLPFQLLRKVIEIEKQEKEKQQAANNALLLDTI (C-terminal amide) [SEQ ID NO 350],11.6 nM,1000 nM,98.1%,48%
ZGPPISIDLPFQLLRKLIEIEKQEKEKQQAANNALLLATI (C-terminal amide) [SEQ ID NO 357],6.44 nM,331 nM,100%,100%
ZGPPISIDVPYWLLRKVIEIEKQEKEKQQAANNARLLDTI (C-terminal amide) [SEQ ID NO 372],14.2 nM,1000 nM,100%,13%
